Results reported in patent US20260374834 (published 2026).
Positions count from the first letter of the chain named.

Target: T1, hIL-18Ra ECD-Fc (human, UniProt Q13478)
T1 chain: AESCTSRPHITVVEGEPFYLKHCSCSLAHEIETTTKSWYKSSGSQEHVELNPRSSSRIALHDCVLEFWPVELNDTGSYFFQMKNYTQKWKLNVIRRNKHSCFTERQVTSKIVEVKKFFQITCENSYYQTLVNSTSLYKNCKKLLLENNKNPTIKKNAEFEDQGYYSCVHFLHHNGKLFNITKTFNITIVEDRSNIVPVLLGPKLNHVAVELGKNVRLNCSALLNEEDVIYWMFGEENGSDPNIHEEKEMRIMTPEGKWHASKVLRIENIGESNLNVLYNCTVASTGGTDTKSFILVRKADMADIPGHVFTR
Experiment: BLI

B1: WM2 (designed binder)
chain: YFPKLRSKLSVIRNLNDQVLFIDQGNRPLFEDMTDSDCRDNAPRTIFIISMYKDSQPRGMAVTISVKCEKISTLSCENKIISFKEMNPPDNIKDTESDIIFFQRSVPGHDNKMQFESSSYEGYFLACEKERDLFKLILKKEDELGDRSIMFTVQNED
- Kd: > 1000 nM

B2: M6 (designed binder)
chain: B1 chain with D54W, Q56T, N91V, E96K, R104T
- Kd: > 1000 nM

B3: M36 (designed binder)
chain: B1 chain with R6S, D54A, Q56D, P57Q, N91G, E96K
- Kd: > 1000 nM

B4: WM8 (designed binder)
chain: B1 chain with N91S, E96K
- Kd: > 1000 nM
